Results published in US20240409663A1 (CONCEPT TO MEDICINE BIOTECH, published 2024).
Values belong to the binder of their own block, whether it stands above or below them.

Key:
human GPC3 on cells [1] = molecular target: T1, human GPC3 on cells (human, UniProt P51654 25-554); assay: FACS, HEPG2 cells
T1 construct: whole, on cells; over-expressed on CHOK1 cells or endogenous on HEPG2, Hep3B and Huh-7 hepatocellular carcinoma cells; the cell line is named under assay; also called GPC3-CHOK1 cells; human GPC3 over-expressed CHOK1 cells
Description: (§1) FACS was used to evaluate the binding activity of 52H5D3B8-6 #-VH1+VL1 and 52H5D3B8-6 #-VH2+VL3 with comparison to GC33 (Chugai Pharmaceutical) and Y035 (Carsgen Therapeutics, U.S. Patent Application US20190046659) on human GPC3 over-expressed CHOK1 cells and HEPG2 cells.

human GPC3 on cells [2] = molecular target: T1, human GPC3 on cells; assay: FACS, GPC3-CHOK1 cells
Description: as §1

human GPC3 on cells [3] = molecular target: T1, human GPC3 on cells; assay: FACS, HEPG2 cells; remark: listed apart in the source
Description: (§2) To evaluate the antigen binding property, the humanized antibodies were analyzed for their binding to human GPC3 over-expressed CHOK1 cells, HEPG2 cells, Hep3B cells and Huh-7 cells by FACS. Briefly, GPC3-CHOK1 cells, HEPG2 cells, Hep3B cells and Huh-7 cells were firstly incubated with Fc blocking reagent at 4° C. for 15 mins. Cells were washed by FACS buffer and divided to each well with 4-fold serially diluted humanized antibodies starting at 10 μg/mL at 4° C. for 60 mins. Cells were washed by FACS buffer and fixed with 2% PFA at RT for 15 mins. […] The 16 humanized antibodies were separated into two plates.

human GPC3 on cells [4] = molecular target: T1, human GPC3 on cells; assay: FACS, Huh-7 cells
Description: as §2

human GPC3 on cells [5] = molecular target: T1, human GPC3 on cells; assay: FACS, GPC3-CHOK1 cells; remark: listed apart in the source
Description: To evaluate the antigen binding property, the affinity maturated antibodies were analyzed for their binding to human GPC3 over-expressed CHOK1 cells by FACS as previously described.

human GPC3 on cells [6] = molecular target: T1, human GPC3 on cells; assay: FACS, GPC3-CHOK1 cells; remark: listed apart in the source
Description: as §2

human GPC3 on cells [7] = molecular target: T1, human GPC3 on cells; assay: cell-based or functional assay
[8] = molecular target: T2, human GPC3-his tag protein (human, UniProt P51654 25-559, limits assumed); assay: SPR Biacore 8K, mAb captured, affinity ranking
T2 construct: recombinant soluble antigen used as analyte in all Biacore runs; also called recombinant GPC3 protein; rhGPC3-His; not shown: His tag

human GPC3 on cells [9] = molecular target: T1, human GPC3 on cells; assay: cell-based or functional assay; remark: listed apart in the source
human GPC3 on cells [10] = molecular target: T1, human GPC3 on cells; assay: FACS, Hep3B cells
Description: as §2

human GPC3 on cells [11] = molecular target: T1, human GPC3 on cells; assay: FACS, Hep3B cells; remark: listed apart in the source
Description: (§3) Cell-based binding: FACS was used to evaluate the binding activity of 52H5D3B8, 52H5D3B8-6 # chimeric mAbs and GC33 antibody on human GPC3 over-expressed CHOK1 cells, Hep3B cells and Huh-7 cells.
(§4) Briefly, GPC3-CHOK1 cells, Hep3B cells or Huh-7 cells were firstly incubated with Fc blocking reagent at 4° C. for 15 mins. Cells were washed by FACS buffer and divided to each well with 3-fold serially diluted 52H5D3B8, 52H5D3B8-6 # chimeric mAbs or GC33 antibody starting at 30 μg/mL at 4° C. for 60 mins. Cells were washed by FACS buffer and fixed with 2% PFA at RT for 15 mins. […] Samples were washed twice with FACS buffer.

human GPC3 on cells [12] = molecular target: T1, human GPC3 on cells; assay: FACS, Huh-7 cells; remark: listed apart in the source
Description: as §2

human GPC3 on cells [13] = molecular target: T1, human GPC3 on cells; assay: FACS, Huh-7 cells; remark: listed apart in the source
Description: as §3, §4

human GPC3 on cells [14] = molecular target: T1, human GPC3 on cells; assay: FACS, GPC3-CHOK1 cells; remark: listed apart in the source
Description: as §3, §4

human GPC3 on cells [15] = molecular target: T1, human GPC3 on cells; assay: FACS, HEPG2 cells; remark: listed apart in the source
Description: as §2

[16] = molecular target: T2, human GPC3-his tag protein; assay: SPR Biacore 8K, mAb captured, one or two doses GPC3-his
Description: The binding of the optimized antibodies of 52H5D3B8 mAb to human GPC3-his was tested with Biacore using a capture method. A single dose or two doses of human GPC3-his tag protein was injected over captured antibody. All the experiments were carried out on a Biacore 8K. Data analysis was carried out using Biacore 8K evaluation software.

human GPC3 on cells [17] = molecular target: T1, human GPC3 on cells; assay: FACS, Hep3B cells; remark: listed apart in the source
Description: as §2

human GPC3 on cells [18] = molecular target: T1, human GPC3 on cells; assay: FACS, GPC3-CHOK1 cells; remark: listed apart in the source
Description: as §2

[19] = molecular target: T2, human GPC3-his tag protein; assay: SPR Biacore, mAb captured on CM5, GPC3-his dilution series (full kinetics)
Description: The binding of the humanized antibodies to recombinant GPC3 protein (human GPC3-his tag) was tested by Biacore using a capture method. 52H5D3B8-6 #-V+VL, 52H5D3B8-6 #-VH1+VL1, 52H5D3B8-6 #-VH1+VL3, 52H5D3B8-6 #-V1+VL4, 52H5D3B8-6 #-VH2+VL4, 52H5D3B8-6 #-VH3+VL1, 52H5D3B8-6 #-VH3+VL3 mAbs were captured using CM5 sensor chip. A serial dilution of human GPC3-his tag protein was injected over captured antibody for 2 mins at a flow rate of […]. The antigen was allowed to dissociate for 360 s. All the experiments were carried out on a Biacore T200.

human GPC3 on cells [20] = molecular target: T1, human GPC3 on cells; assay: FACS, GPC3-CHOK1 cells; remark: listed apart in the source
Description: Briefly, GPC3-CHOK1 cells were firstly incubated with Fc blocking reagent at 4° C. for 15 mins. Cells were washed by FACS buffer and divided to each well with 3-fold serially diluted 52H5D3B8, 52H5D3B8-1 #, 52H5D3B8-2 #, 52H5D3B8-3 #, 52H5D3B8-4 #, 52H5D3B8-5 #, 52H5D3B8-6 #, 52H5D3B8-7 #, 52H5D3B8-8 #, 52H5D3B8-9 #, 52H5D3B8-10 #, 52H5D3B8-11 #, 52H5D3B8-12 #, 52H5D3B8-13 #, 52H5D3B8-14 # and 52H5D3B8-15# chimeric mAbs starting at 30 μg/mL at 4° C. for 60 mins. Cells were washed by FACS buffer and fixed with 2% PFA at RT for 15 mins. […] Samples were washed twice with FACS buffer.

EC50 (human GPC3 on cells [1]): 0.354 nM
EC50 (human GPC3 on cells [2]): 0.344 nM
EC50 (human GPC3 on cells [3]): 0.0438 µg/mL
EC50 (human GPC3 on cells [4]): 0.0384 µg/mL
EC50 (human GPC3 on cells [5]): 0.412 nM
EC50 (human GPC3 on cells [6]): 0.0411 µg/mL
Kd [8]: 0.962 nM
koff [8]: 0.000642 s⁻¹
kon [8]: 668000 M⁻¹ s⁻¹
EC50 of ADCC signaling (Jurkat-hCD16a-NFAT luciferase reporter), HEPG2 cells (human GPC3 on cells [9]): 0.174 nM
EC50 of ADCC signaling (Jurkat-hCD16a-NFAT luciferase reporter), Huh-7 cells (human GPC3 on cells [9]): 0.265 nM
EC50 (human GPC3 on cells [10]): 0.0705 µg/mL
B1: 52H5D3B8-6#-VH2+VL3 (antibody, V domains shown)
VH: QVQLVQSGAEVKKPGASVKVSCKASGYTFTDYEMHWVRQAPGQGLEWIGAIHPGSGGTAYNQKFKGRVTMTADTSTSTVYMELSSLRSEDTAVYYCTRYYSYAYWGQGTLVTVSS
VL: DIVMTQTPLSLSVTPGQPASISCRSSQSLVHSNGNTYLQWYLQKPGQSPKLLIYKVSNRFSGVPDRFSGSGSGTDFTLKISRVEAEDVGVYYCFQSIHVPYTFGGGTKLEIK
notes: humanized
EC50 of ADCC cytotoxicity (primary NK cells, LDH), HEPG2 cells (human GPC3 on cells [7]): 0.104 nM
EC50 of ADCC cytotoxicity (primary NK cells, LDH), Huh-7 cells (human GPC3 on cells [7]): 0.106 nM

EC50 (human GPC3 on cells [11]): 0.0982 µg/mL
EC50 (human GPC3 on cells [12]): 0.0378 µg/mL
EC50 (human GPC3 on cells [3]): 0.0452 µg/mL
EC50 (human GPC3 on cells [4]): 0.0347 µg/mL
EC50 (human GPC3 on cells [13]): 0.0501 µg/mL
EC50 (human GPC3 on cells [6]): 0.035 µg/mL
EC50 (human GPC3 on cells [14]): 0.0474 µg/mL
EC50 (human GPC3 on cells [15]): 0.0469 µg/mL
Kd [16]: 0.368 nM
koff [16]: 0.000289 s⁻¹
kon [16]: 785000 M⁻¹ s⁻¹
EC50 (human GPC3 on cells [17]): 0.0664 µg/mL
Kd [8]: 0.425 nM
koff [8]: 0.000307 s⁻¹
kon [8]: 721000 M⁻¹ s⁻¹
EC50 (human GPC3 on cells [10]): 0.0643 µg/mL
EC50 (human GPC3 on cells [18]): 0.0389 µg/mL
Kd [19]: 0.446 nM
koff [19]: 0.000265 s⁻¹
kon [19]: 595000 M⁻¹ s⁻¹
EC50 (human GPC3 on cells [20]): 0.0601 µg/mL
B2: 52H5D3B8-6# chimeric mAb (antibody, V domains shown)
VH: QVQLQQSGAELVRPGASVKLSCKALGYTFTDYEMHWVKQTPVHGLEWIGAIHPGSGGTAYNQKFKGKATLTADKFSSTGYMELSSLTSEDSAVYYCTRYYSYAYWGQGTLVTVSA
VL: DVVMTQTPLSLPVSLGDQASISCRSSQSLVHSNGNTYLQWYLQKPGQSPKLLIYKVSNRFSGVPDRFSGSGSGTDFILKISRVEAEDLGVYFCFQSIHVPYTFGGGTKLEIK
notes: CDR3 mutant of the 52H5D3B8 chimeric mAb (human IgG1); also called 52H5D3B8-6#-VH+VL
